Reference: paper PMC8251938, “Cooperation between a T Domain and a Minimal C‐Terminal Docking Domain to Enable Specific Assembly in a Multiprotein NRPS” (Angewandte Chemie (International Ed. in English), 2021)

Legend:
[1] = biological target: PaxA_(981-1084), T1-CDD di-domain construct (apo), X. cabanillasii JM26 (Xenorhabdus cabanillasii JM26) (UniProt W1J0W9); assay: ITC; PaxA construct titrated with the PaxB NDD peptide or its variant; n=3 for the variants
[2] = biological target: PaxA_(986-1089), T1-CDD di-domain construct (apo), X. bovienii SS-2004 (Xenorhabdus bovienii SS-2004); assay: as above
[3] = biological target: T1, PaxB_(1-30) (PaxB NDD), X. cabanillasii JM26 (Xenorhabdus cabanillasii JM26); assay: ITC; replicate 1
T1 chain: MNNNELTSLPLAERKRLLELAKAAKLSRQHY

[4] = biological target: T1, PaxB_(1-30) (PaxB NDD), X. cabanillasii …; assay: ITC; replicate 3
[5] = biological target: T1, PaxB_(1-30) (PaxB NDD), X. cabanillasii …; assay: ITC; apo, replicate 1
[6] = biological target: T1, PaxB_(1-30) (PaxB NDD), X. cabanillasii …; assay: ITC; apo, replicate 3
PaxB NDD = assay: ITC titration of X. cabanillasii PaxA constructs with PaxB NDD; type: binding, Xenorhabdus cabanillasii JM26; conditions: X. cabanillasii JM26, 20 °C, pH 6.5, one site model
Text: Unfortunately, despite its very high affinity the complex between the PaxA T1‐^CDD di‐domain construct and the PaxB ^NDD peptide from the PaxS NRPS from X. bovienii SS‐2004 was not suitable for a full structure determination. The closely related species Xenorhabdus cabanillasii JM26 also contains the PaxS NRPS with PaxA and PaxB (Figure S4). […] The affinity of this interaction was not modulated by the presence of the Ppant moiety in the PaxA T1 domain (Figure S7). […] Thus, the interaction between PaxA and PaxB from the PaxS NRPS of X. cabanillasii has biophysical properties very similar to the one from the X. bovienii system and was amenable to a full structural characterization by NMR spectroscopy.
England BioLabs) approach following the manufacturer`s instructions.
Protein expression and purification […]
interactions, proteins from Xenorhabdus cabanillasii and Xenorhabdus bovienii were […]
BAP1 under the control of a T7 promoter. All proteins of interest were expressed as SUMO […]
concentration measurements upon cleavage with Ulp protease. All constructs containing the […]
measurements, proteins were expressed in LB medium. Protein expression was induced at an […]
After expression, cells were lysed by […]
spectrometers equipped with cryogenic 5 mm triple resonance probes. The proton chemical […]
mercaptoethanol and 5 % D2O. Sequential assignments of backbone amide signals and […]

[7] = biological target: T1, PaxB_(1-30) (PaxB NDD), X. cabanillasii …; assay: ITC; holo (Ppant), replicate 1
[8] = biological target: T1, PaxB_(1-30) (PaxB NDD), X. cabanillasii …; assay: ITC; holo (Ppant), replicate 2
[9] = biological target: T1, PaxB_(1-30) (PaxB NDD), X. cabanillasii …; assay: ITC; holo (Ppant), replicate 3
[10] = biological target: T1, PaxB_(1-30) (PaxB NDD), X. cabanillasii …; assay: ITC; holo (Ppant), mean of three replicates

PaxB NDD R16E mutant, X. cabanillasii JM26 (domain or fragment)
Kd [1]: 2800 nM

PaxB NDD K22E mutant, X. cabanillasii JM26 (domain or fragment)
Kd [1]: 3800 nM

PaxB NDD P10L variant, X. cabanillasii JM26 (domain or fragment)
Kd [1]: 3900 nM

PaxB_(1-30) (PaxB NDD), X. cabanillasii JM26 (domain or fragment)
Kd [1]: 248 nM
stoichiometry N [1]: 0.88

PaxB_(1-36) (PaxB NDD), X. bovienii SS-2004 (domain or fragment)
Kd [2]: 201 nM
stoichiometry N [2]: 0.74

B1: PaxA_(981-1084), T1-CDD di-domain construct (apo), X. cabanillasii JM26 (domain or fragment)
chain: DHSSVITQEYAAPQGEIEEQLADIWQTILKIDRIGRYDNFFELGGHSLLVLQLQSRINEIFDVDISIQQLFAHPSICQLEECIINAQLLQFDADSLQDIYKSME
Kd [3]: 267 nM
Kd [4]: 224 nM
Kd [5]: 267 nM
Kd [6]: 224 nM

B2: PaxA981–1084: X. cabanillasii PaxA T1-CDD di-domain (protein)
chain: DHSSVITQEYAAPQGEIEEQLADIWQTILKIDRIGRYDNFFELGGHSLLVLQLQSRINEIFDVDISIQQLFAHPSICQLEECIINAQLLQFDADSLQDIYKSME
n (binding stoichiometry) (PaxB NDD): 0.88±0.01 sites

B3: PaxA T1-CDD di-domain with the Ppant moiety (holo), X. cabanillasii JM26 (domain or fragment)
chain: DHSSVITQEYAAPQGEIEEQLADIWQTILKIDRIGRYDNFFELGGHSLLVLQLQSRINEIFDVDISIQQLFAHPSICQLEECIINAQLLQFDADSLQDIYKSME
modifications: phosphopantetheinyl (Ppant) arm attached to residue S1027
Kd [7]: 248 nM
Kd [8]: 220 nM
Kd [9]: 192 nM
Kd [10]: 220 nM
